Source: patent publication US20240270826A1 (NATIONAL RESEARCH COUNCIL OF CANADA, published 2024)

B1: NRCoV2-SR13 VHH-Fc (Fc fusion)
chain: EVQLVESGGGLVTTGGSLRLSCATSGSRFGSKHMAWYRQAPGKQRDLVAAISSGGSTHYGSSVKGRFTISRDNAKSTVYLQMNSLNPEDTAVFYCNMGGWDYRSNTYIPGSRSDYWGQGTQVTVSS
notes: bivalent VHH-Fc
B2: NRCoV2-12 VHH-Fc (Fc fusion)
chain: EVQLQQSGGGLVQAGGSLRLSCAASGRTFRNYVMGWFRQAPQAPGKDHEFVAAISWGGTEIYYADSVKGRFTISRDNAKNTVYLQMNSLKPEDTAVYYCAADRGLSYYYTRTTEYNYWGQGTQVTVSS
notes: bivalent VHH-Fc
B3: NRCoV2-02 VHH-Fc (Fc fusion)
chain: EVQLVESGGGLVQAGGSLRLSCAASGFTFSNYAMNWVRQAPGKGLEWVSGISGRGDDTRYADSVKGRFTISRDNAKNTLFLQMRSLRPEDTGVYRCTKGPDLYYFGSGYSDRGQGTQVTVSS
notes: bivalent VHH-Fc
B4: NRCoV2-14 VHH-Fc (Fc fusion)
chain: EVQLVSSGGGLVQAGGSLRLSCEASGTTFSHYAVGWYRQAPGKQREWVASISVFGSTTYGGSVAGRFTISRDNDKNTVDLQMNSLKPEDTAVYYCHAVNADIGGDYWGQGTQVTVSS
notes: bivalent VHH-Fc
B5: NRCoV2-14 VHH-Fc (Fc fusion)
chain: B4 chain
notes: bivalent VHH-Fc
B6: NRCoV2-04 VHH-Fc (Fc fusion)
chain: AVQLVDSGGGLVQPGGSLRLSCAASGSPFSNVVMAWYRQAPGKQRERVAFISGGGIADYIMSVKGRFTISRDNAKNTVYLQMNSLKPEDTAVYYCWSSYESTWGQGTQVTVSS
notes: bivalent VHH-Fc
B7: NRCoV2-04 VHH-Fc (Fc fusion)
chain: B6 chain
notes: bivalent VHH-Fc
B8: NRCoV2-07 VHH-Fc (Fc fusion)
chain: QVQLVQSGGGLVQPGGSLRLSCAASGVTLDYYAIGWFRQAPGKEREAVSCISSNGRRNHYVASVRGRFTISRDNAKSTVYLQMNSLKPEDTAVYYCAAVQDVHGDNYYCTSPNEYNVWGQGTQVTVSS
notes: bivalent VHH-Fc
B9: NRCoV2-SR02 VHH-Fc (Fc fusion)
chain: EVQLVDSGGGLVQAGGSLRLSCTASEFTLNYYSIGWFRQSPGKEREGVSCIRYSGGGIDYADSVKGRFTISRDNAKNTVYLTMNSLKPEDTAVYYCAADRLYSRACPTAGGRNYWGQGTQVTVSS
notes: bivalent VHH-Fc
B10: NRCoV2-SR01 VHH-Fc (Fc fusion)
chain: EVQLVQSGGGSVQAGGSLRLSCVASGFTFDNYAIGWFRQAPGKEREGVSCISGNGGVTIYADSVKGRFTISRDNAKNLVYLQMNSLKPEDTAVYYCAATGIRSTWSVYGCSRLAGPYDYWGQGTQVTVSS
notes: bivalent VHH-Fc
B11: NRCoV2-SR01 VHH-Fc (Fc fusion)
chain: B10 chain
notes: bivalent VHH-Fc
B12: NRCoV2-20 VHH-Fc (Fc fusion)
chain: EVQLQQSGGGLVQPGGSLRLSCAASGRTFSNYVVGWFRQAPQAPGKDHEFVAVISGSDTETYYADSVKGRFTISRDNAKNTVYLQMNSLKPEDTAVYYCAADRGMSYYYTRATEYYYWGQGTQVTVSS
notes: bivalent VHH-Fc
B13: NRCoV2-20 VHH-Fc (Fc fusion)
chain: B12 chain
notes: bivalent VHH-Fc
B14: NRCoV2-12 VHH-Fc (Fc fusion)
chain: B2 chain
notes: bivalent VHH-Fc
B15: NRCoV2-18 VHH-Fc (Fc fusion)
chain: EVQLVESGGGLVQAGGSLRLSCVASGITISGYNMAWWRQTRGKQTERVAFINSGGSTTYSDSVKGRFTISRDNGKNTAYLQMNSLNAEDTADYFCSLHTSHDYWGQGTQVTVSS
notes: bivalent VHH-Fc
B16: NRCoV2-MRed04 VHH-Fc (Fc fusion)
chain: EVQLVESGGGLVQPGRSLRLSCAASGNSFSISTMGWFRQAPGKERELVASIWSDTTTSYADSVKGRFTISTDNTRTKVYLQMSSLNPEDTAVYYCAADRGFVVRGQYDYWGQGTQVTVSS
notes: bivalent VHH-Fc
B17: NRCoV2-1d VHH-Fc (Fc fusion)
chain: EVQLVESGGGSVQPGGSLRLSCAASGSTLDYYAIGWFRQAPGKEREWVSSVSSSDGNTLYADSVKGRFTISRDNAKNTVYLQMNSLKAEDTAVYVCAADYSMRPFAVGRWHRDYEYWGQGTQVTVSS
notes: bivalent VHH-Fc
B18: NRCoV2-10 VHH-Fc (Fc fusion)
chain: QLQLQESGGGLVQPGGSLTLSCAASGNTFSRSNMHWYRQAPGAQREWVAAISSRGISTYAYSAKGRFTISRDNAKNTVSLQMNSLKPEDTAVYYCYAADDLGDYWGQGTQVTVSS
notes: bivalent VHH-Fc
B19: NRCoV2-10 VHH-Fc (Fc fusion)
chain: B18 chain
notes: bivalent VHH-Fc
B20: NRCoV2-11 VHH-Fc (Fc fusion)
chain: EVQLVSSGGGLVQPGGSLRLSCAASGSSLDSYSVSWFRQAPGKEREWISFISRYYSSTYYTDSVKGRFTTSRDGDQKTVHLQMNSLKPEDTAVYYCAARSRDFSSPFSATDTYTSWGQGTQVTVSS
notes: bivalent VHH-Fc
B21: NRCoV2-11 VHH-Fc (Fc fusion)
chain: B20 chain
notes: bivalent VHH-Fc
B22: NRCoV2-05 VHH-Fc (Fc fusion)
chain: EVKLVQSGGGLVQPGGSLRLSCAASGFIFSNYAMNWVRQAPGKGLEWVSGINSGGGDTRYADSVKGRFTVSRDNAKNTLYLQMNSLKPEDTGVYYCSKGPVSSYYGSGYDYRGQGTQVTVSS
notes: bivalent VHH-Fc
B23: NRCoV2-MRed05 VHH-Fc (Fc fusion)
chain: EVQLVESGGGLVQPGGSLRLSCAASGFTLDYYAIGWFRQAPGKEREGVSCISSSDGSTLYADSVKGRFTISRDNAKNTVYLQMNSLKPEDTAVYYCATGPQAYYSGSYYFQCPQAGMDYWGKGTQVTVSS
notes: bivalent VHH-Fc
B24: NRCoV2-15 VHH-Fc (Fc fusion)
chain: EVQLVSSGGGLVEAGGSLRLSCIASGSTSGRNTMGWFRQAPGKQREWVAIVSTSGATNYAGSVKGRFTLSRDNAKNAVYLQMNNLKPEDTAVYYCYAAYGGGGDYWGQGTQVTVSS
notes: bivalent VHH-Fc
B25: NRCoV2-15 VHH-Fc (Fc fusion)
chain: B24 chain
notes: bivalent VHH-Fc
B26: NRCoV2-17 VHH-Fc (Fc fusion)
chain: EVQLQQSGGGLVQTGGSLRLSCAAAGSPFSQLAMSWYRQISGKERAWVASISPTGNRSYSKIAKGRFTISRDNAKNTVTLQMTSLKPEDTAAYICQAANVNGGDYWGQGTQVTVSS
notes: bivalent VHH-Fc
B27: NRCoV2-17 VHH-Fc (Fc fusion)
chain: B26 chain
notes: bivalent VHH-Fc

Columns and labels:
[1] = molecular target: SARS-CoV-2 spike protein S on live virus, Alpha variant (SARS-CoV-2 (Alpha variant), UniProt P0DTC2 14-1273); test: cell-based or functional assay
[2] = molecular target: Human SARS-CoV-2 Omicron (B.1.1.529) S (SARS-CoV-2 (Omicron variant)); test: flow cytometry SVNA: VHH-Fc inhibits S binding to ACE2 on Vero E6 cells

Binder | LVNA IC50 [1] [nM] | IC50 [2] [nM]
B1 | ~100 | 
B2 | 1.35 | 
B3 | 0.09 | 
B4 | 0.88 | 
B5 |  | 5.2
B6 | 2.3 | 
B7 |  | 18.4
B8 | 0.42 | 
B9 | 9.05 | 
B10 | 3.77 | 
B11 |  | 4.4
B12 | 1.94 | 
B13 |  | 13.1
B14 |  | 17.2
B15 | 2.82 | 
B16 | 4.5 | 
B17 | 0.37 | 
B18 | 0.47 | 
B19 |  | 4.3
B20 | 2.3 | 
B21 |  | 8.8
B22 | 0.03 | 
B23 | 0.13 | 
B24 | 0.16 | 
B25 |  | 3
B26 | 0.61 | 
B27 |  | 3.4
